Values belong to the binder of their own block, whether it stands above or below them. Starred links: 1 amine or outer side, 2 acyl side, 3 side chain; linkers in the order of their positions; H or OH if unused. Positions of bridges follow the written chain, without caps; N, C: chain ends. Non-standard residues stand in square brackets, D forms with d. No end group written: not given here. O2beY = O-(2-bromoethyl)-tyrosine (p-2beF), reacts with Cys to form a thioether, O=C([C@H](Cc1ccc(OCCBr)cc1)N[*:1])[*:2]; pCaaF = p-(2-chloroacetamido)-phenylalanine, O=C(CCl)Nc1ccc(C[C@H](N[*:1])C(=O)[*:2])cc1
Columns and labels:
[1] = molecular target: T1, integrin αvβ3 on the surface of MDA-MB-231 breast cancer cells (human, UniProt P06756 31-1048; P05106 27-788); experiment: flow cytometry on MDA-MB-231 cells, FITC anti-IgG1 Fc secondary
T1 construct: whole, on cells; also called integrin receptors on the cells
Description: Flow Cytometry Analysis. […] When confluent, media was aspirated, cells were washed once with 1×DPBS (no calcium, no magnesium) (Gibco). Adherent cells were detached from the petri dish with 1 mL of accutase (Gibco) pre-warmed to 37° C., followed by incubated for 5 min at 37° C. Cells were spun down using centrifugation. Supernatant was removed and cells were washed three times with staining buffer (1×PBS with 0.5% BSA). Cells were resuspended in Eppendorf tubes in 100 μL PBS at a concentration of […]. Cyclopeptibodies or Human anti-PD-L1 antibody (1 μg) (R&D Systems, MAB10355) in staining buffer were then added to the tubes with a concentration of 1.5 μM in 200 μL. Eppendorf tubes were then placed on the platform shaker for gently shaking for 1 hour at room temperature. After 1 hour, cells were spun down using centrifugation, then supernatant was removed. After washing three times, cells were resuspended in 200 μL of Fluorescein (FITC) AffiniPure Goat Anti-Human IgG with working concentration of 30 μg/mL (Jackson ImmunoResearch, 109-095-098), incubated in the dark for 30 min at room temperature. […] Then cells were analyzed on a BD FACS Accuri C6⁺ using a filter of 533/30. […]
The cyclopeptibody treated cells were then analyzed by flow cytometry using a procedure similar to that described for the PD-L1-targeting cyclopeptibodies in Example 9.

Sonic Hedgehog (Shh) [2] = molecular target: T2, Sonic Hedgehog (Shh) (human, UniProt Q15465 24-197, limits assumed); experiment: plate binding assay with immobilised Shh
Description: After washing (3×150 μL of PBS with 0.05% Tween-20), each well was incubated with 100 μL of purified FLAG-tagged cyclopeptibody at varying concentrations for 1 hour at room temperature. After washing three times with wash buffer, each well was incubated with 100 μL of 1:2500 dilution of HRP-conjugate mouse anti-FLAG polyclonal antibody (Sigma-Aldrich) for 1 hour at room temperature. After washing three times with wash buffer, 100 μL of 2.2 mM o-phenylenediamine dihydrochloride, 4.2 mM urea hydrogen peroxide, 100 mM dibasic sodium phosphate, and 50 mM sodium citrate, pH 5.0, were added to each well, followed by measurement of the absorbance at 450 nm after 10-20 min using a Tecan Infinite 1000 plate reader. Equilibrium dissociation constants (Kp) were determined by fitting the dose-response curves to a 1:1 binding isotherm equation via nonlinear regression. using SigmaPlot. Mean values and standard deviations were calculated from experiments performed in triplicate.
To prepare a Hedgehog-targeting cyclopeptibody, a Shh-binding cyclic peptide previously developed via affinity maturation of a HHIP loop 2 mimic (Owens A E et al., 2017, J. Am. Chem. Soc., 139:12559-12568) was genetically fused to the Fc domain of human IgG1 via a spacer (Entry 5, Table 1). The resulting cyclopeptibody (called L2-m5-Tras-Fc) was expressed, purified, and characterized as described in Example 4. […]

Sonic Hedgehog (Shh) [3] = molecular target: T2, Sonic Hedgehog (Shh); experiment: plate binding assay: immobilised Shh, FLAG-tagged binder titrated, HRP anti-FLAG detection

T1 sequence (P06756 31-1048, chain 1 of 2): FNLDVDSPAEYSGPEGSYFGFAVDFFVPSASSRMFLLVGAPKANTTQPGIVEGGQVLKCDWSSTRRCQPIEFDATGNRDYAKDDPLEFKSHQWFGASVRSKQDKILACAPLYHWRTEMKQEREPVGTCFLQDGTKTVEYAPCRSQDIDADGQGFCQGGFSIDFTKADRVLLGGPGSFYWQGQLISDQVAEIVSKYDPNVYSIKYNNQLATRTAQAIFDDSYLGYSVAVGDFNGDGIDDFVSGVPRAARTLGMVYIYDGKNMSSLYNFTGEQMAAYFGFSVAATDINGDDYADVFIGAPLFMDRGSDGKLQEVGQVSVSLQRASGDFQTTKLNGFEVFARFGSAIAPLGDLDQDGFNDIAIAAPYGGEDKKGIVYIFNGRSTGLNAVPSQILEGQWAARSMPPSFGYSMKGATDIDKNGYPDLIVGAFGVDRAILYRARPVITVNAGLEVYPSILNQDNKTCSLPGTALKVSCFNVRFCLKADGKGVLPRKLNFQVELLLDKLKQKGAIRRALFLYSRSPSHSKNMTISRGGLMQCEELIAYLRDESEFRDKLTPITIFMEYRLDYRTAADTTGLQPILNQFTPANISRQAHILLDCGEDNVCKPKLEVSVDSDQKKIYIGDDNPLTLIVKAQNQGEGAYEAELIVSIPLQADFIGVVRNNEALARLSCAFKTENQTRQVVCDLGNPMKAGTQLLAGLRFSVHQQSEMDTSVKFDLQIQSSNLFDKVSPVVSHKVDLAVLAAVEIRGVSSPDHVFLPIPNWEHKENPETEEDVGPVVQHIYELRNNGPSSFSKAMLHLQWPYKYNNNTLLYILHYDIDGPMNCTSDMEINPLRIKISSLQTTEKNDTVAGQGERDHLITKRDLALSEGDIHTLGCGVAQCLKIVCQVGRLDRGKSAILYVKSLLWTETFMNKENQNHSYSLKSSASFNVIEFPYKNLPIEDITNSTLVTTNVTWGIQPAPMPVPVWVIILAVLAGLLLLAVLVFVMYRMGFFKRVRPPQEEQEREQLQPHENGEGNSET
T1 sequence (P05106 27-788, chain 2 of 2): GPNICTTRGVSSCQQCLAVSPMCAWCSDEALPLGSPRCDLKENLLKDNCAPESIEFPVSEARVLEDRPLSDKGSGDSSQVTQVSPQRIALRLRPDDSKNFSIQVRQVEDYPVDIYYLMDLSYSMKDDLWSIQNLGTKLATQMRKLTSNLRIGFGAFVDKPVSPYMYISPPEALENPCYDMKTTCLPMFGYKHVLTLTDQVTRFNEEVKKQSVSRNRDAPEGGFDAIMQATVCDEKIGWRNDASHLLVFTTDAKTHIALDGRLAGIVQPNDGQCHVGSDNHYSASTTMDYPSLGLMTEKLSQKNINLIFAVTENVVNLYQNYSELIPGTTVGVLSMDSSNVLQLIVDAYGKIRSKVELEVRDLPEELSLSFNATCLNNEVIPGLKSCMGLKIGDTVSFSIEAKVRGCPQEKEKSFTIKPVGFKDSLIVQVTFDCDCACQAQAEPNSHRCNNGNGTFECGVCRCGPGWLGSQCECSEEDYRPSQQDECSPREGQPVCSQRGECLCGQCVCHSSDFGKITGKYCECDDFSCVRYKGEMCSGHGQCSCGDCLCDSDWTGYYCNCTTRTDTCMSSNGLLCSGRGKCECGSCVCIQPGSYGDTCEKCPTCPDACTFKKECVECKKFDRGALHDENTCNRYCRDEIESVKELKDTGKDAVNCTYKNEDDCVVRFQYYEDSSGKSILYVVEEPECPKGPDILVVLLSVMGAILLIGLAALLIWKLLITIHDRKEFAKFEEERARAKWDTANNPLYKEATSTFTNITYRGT

- binding result [1]: binds
B1: RGD5R (pCaaF)-Tras-Fc (Fc fusion)
chain: DYKDDDDKGSGSCRDRGDY[pCaaF]QQQQQQIEGR-{Fc-H6}
modifications: thioether 13-20; also: dimeric through the Fc
notes: Integrin-targeting cyclopeptibody; dimeric through the human IgG1 Fc; also called cRGD5R (pCaaF)-Tras-Fc

- fold improved affinity against the same cyclic peptide fused to CBD (Sonic Hedgehog (Shh) [2]): > 55 fold
- Kd (Sonic Hedgehog (Shh) [3]): 7 nM
B2: L2-m5-Tras-Fc (Fc fusion)
chain: DYKDDDDKGSGSTLSW[O2beY]EAMDMCTSSQQQQQQ-{Fc-H6}
modifications: thioether 17-23; also: dimeric through the Fc
notes: Cyclic peptide fused through a (Gln)6 spacer to human IgG1 Fc; dimeric through the Fc; made in E. coli; also called FLAG-(GS)2-TLSWZEAMDMCTSS-(Q)6-(Fc)^1-H6
